The target in experiment [1] is T1, recombinant KIT D4/D5 polypeptide (D4/D5 region of human KIT, V308 to H515, with 5xHis tag) (human, UniProt P10721 26-519).
T1 construct: also called KIT D4/D5 antigen; KIT immunogen
The experiment is described as follows: competition solid phase ELISA on KIT D4/D5 antigen; 37C titrated with competitor 37M at 10 nM. The procedure:
(§1) Competitive binding assays were carried out with antibody 37M or 37C as described below and using solid phase ELISA as described in Example 2 (Section 6.2). In particular, serial dilutions of the reference antibody (either 37M or 37C) were combined with constant concentrations of a competing antibody (37M in the case of 37C, and 37C in the case of 37M) and incubated in wells of 96-well plates coated with a recombinant KIT polypeptide containing the D4/D5 region depicted in FIG. 2A. Reference antibody binding was then detected through the use of an HRP-conjugated, species-specific secondary antibody. Antibody 37M has a mouse constant region while antibody 37C has a human constant region. Therefore, when antibody 37M was used as a reference antibody and antibody 37C was used as a competing antibody, the reference antibody was detected using an anti-mouse IgG secondary antibody; and when antibody 37C was used as a reference antibody and antibody 37M was used as a competing antibody, the reference antibody was detected using an anti-human IgG secondary antibody. […]
(§2) Eight, 3-fold dilutions of the reference antibody samples were prepared beginning at 20 nM (2×), and combined 1:1 with a 20 nM solution of the competing antibody to yield final 1× values. […] The plates were processed similarly as described above for data collection on a plate reader. […]

The target in experiment [2] is T1, recombinant KIT D4/D5 polypeptide …. The experiment is described as follows: solid phase ELISA, antigen coated on the plate. The procedure: The binding activity of antibodies 37M and 37C obtained from mice immunized with a KIT immunogen containing the D4/D5 region of the human KIT extracellular region was characterized by solid phase ELISA. […] The binding affinity of antibody 37C for an antigen containing the D4/D5 region (see FIG. 2A) of human KIT was also tested by solid phase ELISA. The general protocol used for the solid phase ELISA experiments are described below.
Preparation of antibody sample with serial dilution: Dilution buffer (100 μL) was added to columns 1 and 7 of a 96 well plate, and 50 μL of dilution buffer were added to all the remaining wells. The test antibody (100 μL) was added to the first well containing 100 μL dilution buffer, mixed by pipetting, and 50 μL from the first well were removed and added into the second well and mixed. This dilution step was repeated across the row until the dilution step was repeated for a total of six dilutions. This dilution process was repeated for each sample.
ELISA: The plate with the absorbed antigen was removed from the −80° C. freezer and was allowed to thaw at room temperature. The borate buffer was removed by flicking the plate into the sink and blotting the plate dry. Blocking buffer (200 μL) was added to each well and was allowed to incubate at room temperature for one hour. The blocking buffer was removed, again by flicking the plate into the sink. […]

The target in experiment [3] is full-length, wild-type human KIT receptor expressed on cells (human, UniProt P10721 26-976). The experiment is described as follows: cell-based or functional assay.
Sequence of full-length, wild-type human KIT receptor expressed on cells (P10721 other isoform, or with tags, fused parts or gaps limits assumed): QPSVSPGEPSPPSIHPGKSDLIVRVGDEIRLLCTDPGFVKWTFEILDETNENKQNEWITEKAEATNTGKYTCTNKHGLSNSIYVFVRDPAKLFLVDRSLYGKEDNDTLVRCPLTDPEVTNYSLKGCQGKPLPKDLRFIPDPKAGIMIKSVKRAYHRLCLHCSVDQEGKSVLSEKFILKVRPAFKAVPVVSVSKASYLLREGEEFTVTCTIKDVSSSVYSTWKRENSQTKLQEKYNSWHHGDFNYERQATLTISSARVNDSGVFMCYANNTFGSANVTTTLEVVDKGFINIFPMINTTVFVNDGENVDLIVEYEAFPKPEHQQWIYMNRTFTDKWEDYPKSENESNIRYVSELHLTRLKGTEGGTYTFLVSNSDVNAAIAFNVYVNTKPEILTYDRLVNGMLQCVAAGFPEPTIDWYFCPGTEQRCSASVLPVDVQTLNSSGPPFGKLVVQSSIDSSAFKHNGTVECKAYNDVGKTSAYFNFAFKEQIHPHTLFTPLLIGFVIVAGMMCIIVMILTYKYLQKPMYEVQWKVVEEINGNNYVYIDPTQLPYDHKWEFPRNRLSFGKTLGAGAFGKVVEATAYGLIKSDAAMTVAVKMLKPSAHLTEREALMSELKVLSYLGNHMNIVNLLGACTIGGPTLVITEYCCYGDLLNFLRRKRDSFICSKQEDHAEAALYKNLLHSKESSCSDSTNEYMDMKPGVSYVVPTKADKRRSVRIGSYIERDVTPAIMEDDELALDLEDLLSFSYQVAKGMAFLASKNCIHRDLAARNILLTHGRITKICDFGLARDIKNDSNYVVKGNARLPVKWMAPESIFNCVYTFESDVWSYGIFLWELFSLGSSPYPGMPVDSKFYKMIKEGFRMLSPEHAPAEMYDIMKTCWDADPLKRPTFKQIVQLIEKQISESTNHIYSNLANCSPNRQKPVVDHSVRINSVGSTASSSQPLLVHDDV
Experiment [4] addresses T1, recombinant KIT D4/D5 polypeptide …. The experiment is described as follows: competition solid phase ELISA on KIT D4/D5 antigen; 37C titrated alone, without competitor. Here is the method:
as §1, §2

T1 sequence (P10721 other isoform, or with tags, fused parts or gaps): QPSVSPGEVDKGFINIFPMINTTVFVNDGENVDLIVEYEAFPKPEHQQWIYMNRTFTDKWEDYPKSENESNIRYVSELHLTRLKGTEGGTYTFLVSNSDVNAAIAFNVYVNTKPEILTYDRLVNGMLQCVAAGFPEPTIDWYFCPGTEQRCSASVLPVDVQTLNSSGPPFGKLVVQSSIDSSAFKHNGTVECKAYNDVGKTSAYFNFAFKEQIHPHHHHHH

B1: antibody 37C (antibody, human IgG1, kappa, V domains shown)
VH: QVQLKQSGAELVRPGASVKLSCKASGYTFTDYYINWVKQRPGQGLEWIARIYPGSGNTYYNEKFKGKATLTAEKSSSTAYMQLSSLTSEDSAVYFCARGVYYFDYWGQGTTLTVSA
VL: DIVMTQSQKFMSTSVGDRVSVTCKASQNVRTNVAWYQQKPGQSPKALIYSASYRYSGVPDRFTGSGSGTDFTLTISNVQSEDLADYFCQQYNSYPRTFGGGTKLEIKR
notes: also called chimeric antibody 37C
For B1, the EC50 was 1 nM in experiment [1], roughly 0.196 nM in experiment [2] and 0.048 nM in experiment [4]. Also, in experiment [3], the “50% inhibition concentration (IC50), cell-based phospho-KIT assay, unsorted CHO/KIT-WT cells (FIG. 8)” value was roughly 167 pM. Further, the “IC50, cell-based phospho-KIT assay, sorted (high KIT expression) CHO/KIT-WT cells (FIG. 11B)” value in experiment [3] was roughly 334 pM.

B2: antibody 37M (antibody, V domains shown)
VH: QVQLKQSGAELVRPGASVKLSCKASGYTFTDYYINWVKQRPGQGLEWIARIYPGSGNTYYNEKFKGKATLTAEKSSSTAYMQLSSLTSEDSAVYFCARGVYYFDYWGQGTTLTVSS
VL: DIVMTQSQKFMSTSVGDRVSVTCKASQNVRTNVAWYQQKPGQSPKALIYSASYRYSGVPDRFTGSGSGTDFTLTISNVQSEDLADYFCQQYNSYPRTFGGGTKLEIKR
As to B2, the “IC50, cell-based phospho-KIT assay, sorted (high KIT expression) CHO/KIT-WT cells (FIG. 11B)” value in experiment [3] is roughly 315 pM.
